The supplement of paper PMC9732359
± gives the uncertainty stated by the source.

Test: protein stability index of a GFP-peptide fusion (yeast GPS) (PSI 1-4); higher = more stable; sorted into four equal gates, so the index is relative within each strain
Outline: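 For each peptide, the protein stability index sums the read frequency in every gate after multiplying it by the gate number. Read frequencies came from plasmids that were PCR-amplified from each gate and Illumina-sequenced, with reads assigned to strains by barcodes. The gates were four equal bins of GFP/Cherry fluorescence ratio applied to mid-log yeast in leucine-free medium carrying a pooled library of tiled 17-residue yeast protein peptides fused downstream of GFP on a Cherry-expressing plasmid.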

| Sequence | protein stability index (doa10∆) | protein stability index (pdr5∆) | protein stability index (san1∆) | protein stability index (ubr1∆) |
| --- | --- | --- | --- | --- |
| YPREEEEDYNEFNSIDR [PRP8] | 3.32 ± 0.09 | 3.24 ± 0.1 | 3.1 ± 0.068 | 3.27 ± 0.08 |
| PEIGNRKINLFYLYMLV [SWI1] | 1.54 ± 0.1 | 1.32 ± 0.054 | 1.1 ± 0.22 | 2.22 ± 0.094 |
| ENVKIINYLLTLAITTV [RPN2] | 2.95 ± 0.06 | 3.03 ± 0.057 | 2.56 ± 0.065 | 2.99 ± 0.055 |
| EEQKIVKKVVKEQTEAA [RPL34A] |  | 3.23 ± 0.16 | 3.27 ± 0.061 | 3.13 ± 0.15 |
| LDIPNVSLVVNFQISKK [PRP28] | 2.32 ± 0.067 | 2.51 ± 0.077 | 2.35 ± 0.087 | 2.71 ± 0.069 |
| NPVTLNEDSKAFHTAVL [NUT1] | 2.81 ± 0.057 | 2.96 ± 0.076 | 2.82 ± 0.075 | 2.41 ± 0.059 |
| DELERILKELSNLETLY [RPB4] | 3.21 ± 0.092 | 3.33 ± 0.082 | 3.21 ± 0.072 | 3.1 ± 0.12 |
| SQKHNGRILKWLWPLCR [CDC53] | 1.52 ± 0.063 | 1.33 ± 0.071 | 1.35 ± 0.094 | 1.12 ± 0.04 |
| NPPYSQCIVYPNCLFIL [SOH1] | 1.76 ± 0.038 | 2.06 ± 0.044 | 1.86 ± 0.06 | 1.86 ± 0.035 |
| GVDNLRRMGILKKILDQ [RPO31] | 2.48 ± 0.1 | 2.7 ± 0.11 | 2.4 ± 0.083 | 2.96 ± 0.04 |
| KVKNQGADVTNTTQDNG [YCS4] | 3.17 ± 0.086 | 3.19 ± 0.084 | 3.11 ± 0.049 | 3.2 ± 0.057 |
| NSFIKANLPWLGKAQNW [RPN2] |  | 2.6 ± 0.13 |  |  |
| FPQGLNIVMDSKQNGIE [SSN8] | 3.11 ± 0.091 | 3.04 ± 0.21 | 3.26 ± 0.078 | 2.61 ± 0.1 |
| GEHEKSNILLNSLTKYP [MED1] | 1.45 ± 0.08 | 1.92 ± 0.076 | 1.14 ± 0.25 | 1.69 ± 0.068 |
| AVSIETALEHKVVNGNS [FAS2] | 2.14 ± 0.18 | 1.37 ± 0.1 | 1.34 ± 0.12 | 1.4 ± 0.051 |
| EGDGAKAAISFGAKPEE [YJL041W/NSP1] | 3.21 ± 0.1 | 3 ± 0.087 | 3.43 ± 0.082 | 3.43 ± 0.053 |
| PLKRAIWLIKCCYFIEW [SRB8] | 2.56 ± 0.1 | 2.12 ± 0.074 | 2.85 ± 0.097 | 2.77 ± 0.071 |
| DKRIVISIDSWPTTHKY [DIS3] | 1.92 ± 0.065 | 1.52 ± 0.11 | 1.99 ± 0.16 | 2.06 ± 0.087 |
| NVKNYSTTQEILEFITA [RPC34] | 1.28 ± 0.24 | 1.45 ± 0.088 | 1.18 ± 0.18 | 1.25 ± 0.15 |
| RAGVCEYNEDSRLCTPI [RPN13] | 2.29 ± 0.12 | 1.86 ± 0.078 | 1.41 ± 0.2 | 2.84 ± 0.072 |
| LRRIITDLNQDSAAIIA [GRR1] | 2.64 ± 0.075 | 2.31 ± 0.068 | 2.6 ± 0.064 | 2.55 ± 0.053 |
| TEEELQAAVPDNAEDDS [BRN1] | 3.2 ± 0.094 | 3.14 ± 0.089 | 3.05 ± 0.083 | 3.02 ± 0.055 |
| SKPSTASPSAHTSSSDG [RPN4] | 2.71 ± 0.064 | 3.04 ± 0.064 | 2.66 ± 0.05 | 2.92 ± 0.045 |
| CQILDGELDVLQIESVT [PRP8] | 2.56 ± 0.05 | 2.78 ± 0.062 | 2.55 ± 0.065 | 2.86 ± 0.059 |
| NNPLVQKKNFLFKPLNK [ARP7] | 2.33 ± 0.23 | 2.51 ± 0.14 | 2.2 ± 0.28 |  |
| LQLNEAEEFVAGVSHGT [SMX3] | 3.36 ± 0.25 | 2.96 ± 0.23 | 3.01 ± 0.28 | 3.41 ± 0.11 |
| EFTPADPNLSFESSSSL [SSN2] | 3.05 ± 0.17 | 3.09 ± 0.12 | 2.39 ± 0.16 | 2.79 ± 0.15 |

| Sequence | protein stability index (doa10∆) | protein stability index (pdr5∆) | protein stability index (san1∆) | protein stability index (ubr1∆) |
| --- | --- | --- | --- | --- |
| ILKTLERSICALGEFAD [YML031W/NDC1] | 2.58 ± 0.053 | 3.04 ± 0.075 | 3.05 ± 0.065 | 2.78 ± 0.05 |
| MKPEVEQELAHILLTEL [FAS2] | 3.006 ± 0.028 | 2.988 ± 0.028 | 2.753 ± 0.025 | 2.722 ± 0.024 |
| FEYVLYPSKTLKTDGVR [FAS2] | 2.42 ± 0.08 | 2.96 ± 0.069 | 2.26 ± 0.099 | 2.75 ± 0.081 |
| FKYVSVRYEEKRELKQL [BRR2] | 2.63 ± 0.068 | 2.93 ± 0.056 | 2.93 ± 0.067 | 3.13 ± 0.05 |
| PTEMEPDLDTECFISMQ [SWI1] | 3.27 ± 0.055 | 3.39 ± 0.052 | 3.23 ± 0.047 | 3.26 ± 0.058 |
| EKKPAAKKTSTSTDGKK [HTB1] | 3.33 ± 0.21 | 3.07 ± 0.11 | 2.85 ± 0.18 | 3.65 ± 0.25 |
| LNTFHFAGVASKKVTSG [RPO21] | 2.67 ± 0.093 | 3.13 ± 0.078 | 2.9 ± 0.065 | 2.9 ± 0.077 |
| GELLHHPIMETIVNDSN [RPN9] | 2.6 ± 0.053 | 2.77 ± 0.054 | 2.2 ± 0.08 | 2.97 ± 0.078 |
| LPQCIIPSSYIKRTDEG [ARP7] | 2.77 ± 0.1 | 2.59 ± 0.068 | 2.13 ± 0.099 | 2.49 ± 0.065 |
| WMMNGALQILNSGIIPG [FAS2] | 1.7 ± 0.092 | 1.86 ± 0.092 | 2.52 ± 0.15 | 1.46 ± 0.24 |
| VAALKAVGAHSDLLKVL [RPL4A] | 3.21 ± 0.093 | 3.16 ± 0.11 | 2.71 ± 0.1 | 2.83 ± 0.059 |
| VPSFLRPDITMYCRPAP [GRR1] | 2.12 ± 0.053 | 2.39 ± 0.045 | 2.1 ± 0.057 | 2.38 ± 0.051 |
| RAQRVAEKRDALLKEDA [RPL19A] | 3.2 ± 0.17 | 3.04 ± 0.13 | 2.89 ± 0.14 | 3.47 ± 0.091 |
| KGETNSEISIIDATLKE [RRP45] | 2.92 ± 0.074 | 3.08 ± 0.068 | 3.31 ± 0.072 | 3.19 ± 0.059 |
| NYHPMNIDETSDEVSRG [SMC4] | 3.17 ± 0.082 | 3.17 ± 0.064 | 3.23 ± 0.054 | 3.14 ± 0.041 |
| TRKAMLDPLEVHMLDFP [PRP8] | 2.84 ± 0.061 | 2.94 ± 0.06 | 3.03 ± 0.054 | 3 ± 0.048 |
| KIRRHPNIMLIFGSGFG [FAS1] | 1.9 ± 0.057 | 2.07 ± 0.061 | 1.68 ± 0.13 | 1.39 ± 0.054 |
| NTNGTNASANSTSFSFN [YOR098C/NUP1] | 2.91 ± 0.045 | 3.12 ± 0.045 | 2.99 ± 0.042 | 3.06 ± 0.031 |
| LFKGTGFNSWEGLFWEK [PRP8] | 2.44 ± 0.12 | 2.42 ± 0.13 | 3.36 ± 0.13 | 1.64 ± 0.04 |
| NLYHVTEDGWIYHGNHD [PRE2] |  | 2.97 ± 0.23 | 2.88 ± 0.18 | 3.28 ± 0.22 |
| IQYVTYLLTQQQIWKSP [SOH1] | 2.16 ± 0.056 | 2.07 ± 0.057 | 1.71 ± 0.074 | 2.09 ± 0.047 |
| TNVQRIAAYIRRHRNPD [SMC1] | 3.1 ± 0.24 | 3.32 ± 0.22 | 3.29 ± 0.18 | 3.04 ± 0.16 |
| KNFSPTKRVEKPQLKFK [RRP6] | 2.33 ± 0.093 | 2.17 ± 0.1 | 2.39 ± 0.1 | 3.21 ± 0.075 |
| IDDENITKLNKEIRAFD [SRB4] | 3.44 ± 0.066 | 3.33 ± 0.063 | 3.27 ± 0.043 | 3.38 ± 0.056 |
| LDNFQKSVEKTMIKKTT [SMC3] |  | 3.29 ± 0.19 | 2.89 ± 0.069 | 3.17 ± 0.075 |
| HDIIEGINAGEIEIPEN [RPL12A] | 2.75 ± 0.071 | 2.52 ± 0.072 | 2.5 ± 0.077 | 2.4 ± 0.06 |
| LTKTTVNISAVDNTTEQ [YCG1] | 3.25 ± 0.11 | 3.29 ± 0.14 | 2.88 ± 0.1 | 3.24 ± 0.098 |
